Assay results taken from publication doi:10.1101/2024.09.13.612963 (bioRxiv, 2024).

Molecular target: T1, TRAK1-mScarlet (wild type, truncated before the mitochondrial binding domain) (human, UniProt Q9UPV9 1-702)
T1 sequence (looked up): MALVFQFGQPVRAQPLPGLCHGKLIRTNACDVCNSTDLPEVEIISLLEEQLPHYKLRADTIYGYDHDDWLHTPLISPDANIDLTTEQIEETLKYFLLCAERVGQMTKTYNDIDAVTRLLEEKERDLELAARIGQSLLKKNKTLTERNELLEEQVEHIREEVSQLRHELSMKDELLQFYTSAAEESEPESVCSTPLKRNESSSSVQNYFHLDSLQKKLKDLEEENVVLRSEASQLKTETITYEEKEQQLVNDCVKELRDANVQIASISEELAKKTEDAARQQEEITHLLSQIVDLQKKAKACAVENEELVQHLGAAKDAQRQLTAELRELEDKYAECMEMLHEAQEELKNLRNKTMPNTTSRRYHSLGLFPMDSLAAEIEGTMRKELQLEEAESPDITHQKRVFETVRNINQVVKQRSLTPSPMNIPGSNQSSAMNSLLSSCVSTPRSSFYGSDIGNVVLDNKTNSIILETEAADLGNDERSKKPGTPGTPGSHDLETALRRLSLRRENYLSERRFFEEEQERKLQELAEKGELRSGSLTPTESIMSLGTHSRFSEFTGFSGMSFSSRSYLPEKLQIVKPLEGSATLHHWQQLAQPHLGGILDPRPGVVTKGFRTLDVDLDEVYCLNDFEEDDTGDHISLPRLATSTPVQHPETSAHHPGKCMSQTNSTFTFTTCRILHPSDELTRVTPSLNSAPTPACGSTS
Assay: co-IP

B1: kinesin-1 (KIF5B) (natural protein, human (endogenous in hTERT RPE-1), UniProt P33176 1-963, looked up)
chain: MADLAECNIKVMCRFRPLNESEVNRGDKYIAKFQGEDTVVIASKPYAFDRVFQSSTSQEQVYNDCAKKIVKDVLEGYNGTIFAYGQTSSGKTHTMEGKLHDPEGMGIIPRIVQDIFNYIYSMDENLEFHIKVSYFEIYLDKIRDLLDVSKTNLSVHEDKNRVPYVKGCTERFVCSPDEVMDTIDEGKSNRHVAVTNMNEHSSRSHSIFLINVKQENTQTEQKLSGKLYLVDLAGSEKVSKTGAEGAVLDEAKNINKSLSALGNVISALAEGSTYVPYRDSKMTRILQDSLGGNCRTTIVICCSPSSYNESETKSTLLFGQRAKTIKNTVCVNVELTAEQWKKKYEKEKEKNKILRNTIQWLENELNRWRNGETVPIDEQFDKEKANLEAFTVDKDITLTNDKPATAIGVIGNFTDAERRKCEEEIAKLYKQLDDKDEEINQQSQLVEKLKTQMLDQEELLASTRRDQDNMQAELNRLQAENDASKEEVKEVLQALEELAVNYDQKSQEVEDKTKEYELLSDELNQKSATLASIDAELQKLKEMTNHQKKRAAEMMASLLKDLAEIGIAVGNNDVKQPEGTGMIDEEFTVARLYISKMKSEVKTMVKRCKQLESTQTESNKKMEENEKELAACQLRISQHEAKIKSLTEYLQNVEQKKRQLEESVDALSEELVQLRAQEKVHEMEKEHLNKVQTANEVKQAVEQQIQSHRETHQKQISSLRDEVEAKAKLITDLQDQNQKMMLEQERLRVEHEKLKATDQEKSRKLHELTVMQDRREQARQDLKGLEETVAKELQTLHNLRKLFVQDLATRVKKSAEIDSDDTGGSAAQKQKISFLENNLEQLTKVHKQLVRDNADLRCELPKLEKRLRATAERVKALESALKEAKENASRDRKRYQQEVDRIKEAVRSKNMARRGHSAQIAKPIRPGQHPAASPTHPSAIRGGGAFVQNSQPVAVRGGGGKQV
fold enrichment against TRAK2-driven synthetic cargo: ~20 fold
